These results are taken from article PMC12363175 (2025).

One may read the Kd as the equilibrium constant for the complex coming apart. Read a low Kd as a tighter complex.

This assay concerns the target SARS-CoV-2 PT-RBD (SARS-CoV-2 prototype, UniProt P0DTC2). As to the kind of experiment: SPR. On the technique in general: Surface plasmon resonance follows binding to a sensor surface in real time, without labels.

B1: golden hamster ACE2 ectodomain fused with mFc (Fc fusion)
chain: QSIIEEQAKTFLDKFNQEAEDLSYQSALASWNYNTNITEENAQKMNEAAAKWSAFYEEQSKLAKNYSLQEVQNLTIKRQLQALQQSGSSALSADKNKQLNTILNTMSTIYSTGKVCNPKNPQECLLLEPGLDDIMATSTDYNERLWAWEGWRAEVGKQLRPLYEEYVVLKNEMARANNYEDYGDYWRGDYEAEGADGYNYNGNQLIEDVERTFKEIKPLYEQLHAYVRTKLMNTYPSYISPTGCLPAHLLGDMWGRFWTNLYPLTVPFGQKPNIDVTDAMVNQGWNAERIFKEAEKFFVSVGLPYMTQGFWENSMLTDPGDDRKVVCHPTAWDLGKGDFRIKMCTKVTMDNFLTAHHEMGHIQYDMAYATQPFLLRNGANEGFHEAVGEIMSLSAATPEHLKSIGLLPSDFQEDNETEINFLLKQALTIVGTLPFTYMLEKWRWMVFKGDIPKEQWMEKWWEMKREIVGVVEPLPHDETYCDPAALFHVSNDYSFIRYYTRTIYQFQFQEALCQAAKHDGPLHKCDISNSTEAGQKLLNMLRLGKSEPWTLALENVVGARNMDVRPLLNYFEPLSVWLKEQNKNSFVGWNTDWSPYADQSIKVRISLKSALGENAYEWDDNEMYLFRASVAYAMRVYFAKNKTQTVPFGVEDIRVSDLKPRVSFNFFVTSPQNVSDIIPRNEVEEAVRLSRGRINDVFGLDDNSLEFLGINPTLSPPYQPPVT
On to B1, for which the Kd came to 71.8 nM.

B2: wild Bactrian camel ACE2 ectodomain fused with mFc (Fc fusion)
chain: QSTTEELAKTFLEEFNHEAEDLSYQSSLASWNYNTNITDENVQKMNDARAKWSTFYEEKSKTAKTYPLEEIQNVTLKRQLQALQQSGASALSADKSKRLTTVLSTMSTIYSSGEVCDPNNPQECLVLEPGLDDIMENSKDYNQRLWAWEGWRAEVGKQLRPLYEEYVVLKNEMARANNYEDYGDYWRGDYEVMWAGDYDYSRDQLMGDVEHTFAEIKPLYEHLHAYVRAKLMDVYPSHISPTGCLPAHLLGDMWGRFWTNLYSLTVPFGQKPNIDVTEAMENQSWDAKRIFKEAEKFFVSIGLPNMTQGFWDNSMLTEPGDGRKVVCHPTAWDLGKGDFRIKMCTKVTMDDFLTAHHEMGHIQYDMAYAIQPFLLRNGANEGFHEAVGEIMSLSAATPHYLKALGLLPADFYEDSETEINFLLKQALTIVGTLPFTYMLEKWRWMVFKGEIPKEQWMQKWWEMKREIVGVVEPLPHDETYCDPACLFHVAEDYSFIRYYTRTIYQFQFHEALCQIAKHEGPLYKCDISNSTEAGQKLLQMLSLGKSEPWTLALEGLVGVKTMDVKPLLNYFEPLLTWLKDQNRNSFVGWSTDWTPYTDQSIKVRISLKSALGDKAYEWNDNEMYLFQSSLAYAMRKYFLKVQNQTILFGVEDVWVSDLKPRISFSFFVTSPKNVSDIIPRTEVEEAIRMSRSRINDAFRLDDNSLEFLGIQPTLGPPYEPP
B2: the Kd is 993 nM.

B3: sheep ACE2 ectodomain fused with mFc (Fc fusion)
chain: QSTTEGQAKTFLEKFNHEAEDLSYQSSLASWNYNTNITDENVQKMNEARAKWSAFYEEQSRMARTYSLEEIQNLTLKRQLKALQHSGTSVLSAEKSKRLNTILNKMSTIYSTGKVLDPNTQECLALEPGLDDIMENSRDYNRRLWAWEGWRAEVGKQLRPLYEEYVVLENEMARANNYEDYGDYWRGDYEVTGAGDYDYSRDQLMKDVERTFEEIKPLYEQLHAYVRAKLMDTYPSYISPTGCLPAHLLGDMWGRFWTNLYSLTVPFEHKPSIDVTEKMKNQSWDAERIFKEAEKFFVSIGLPYMTQGFWDNSMLTEPGDGRKVVCHPTAWDLGKGDFRIKMCTKVTMDDFLTAHHEMGHIQYDMAYATQPYLLRNGANEGFHEAVGEIMSLSAATPHYLKALGLLAPDFYEDNETEINFLLKQALTIVGTLPFTYMLEKWRWMVFKGEIPKQQWMEKWWEMKREIVGVVEPLPHDETYCDPACLFHVAEDYSFIRYYTRTIYQFQFHEALCKTAKHEGALFKCDISNSTEAGQRLLQMLRLGKSEPWTLALENIVGIKTMDVKPLLNYFEPLFTWLKEQNRNSFVGWSTEWTPYSDQSIKVRISLKSALGENAYEWNDNEMYLFRSSVAYAMRKYFLKERNETIPFGEENVWVSDKKPRISFKFFVTSPNNVSDIIPRTEVENAIRLCRDRINDAFQLDDNSLEFLGIQPTLRPPYEPP
B3 had a Kd of 171 nM. This Kd lies about 5.8-fold lower than the previous one.
